The record followed here is patent WO2007044695A2 (dated 2007).

This experiment deals with GD03-S1(318-510)-C9 protein (SARS-CoV GD03 (GD03T0013), UniProt P59594 318-510). In words: ELISA, serial dilutions of coated S1-(318-510)-C9 protein, 0.5 ug/ml IgG1.

B1: 11A IgG1 (antibody, V domains shown)
VH: EVQLVQSGAEVKKPGESLKISCKGSGYSFTSYWIGWVRQMPGKGLEWMGIINPDNSDTRFSPSLQGQVTISVDKSINTVYLQWGSLKASDTAMYYCARQGDYSGPSINYWGQGTLVTVSS
VL: QSVLTQPASVSGSPGQSITISCTGTSSDVGGYNYVSWYQQHPGKAPKLMIYDVSKRPSGIPERFSGSNSGNTATLTISGTQAMDEADYYCQAWDSNTYVFGTGTKVTVLV
With B1, the binding result is reported as “binds”.
